Test results reported in patent publication US6673354B2, “Compositions and methods for treating papillomavirus-infected cells” (priority 1998, dated 2004).
Where no end group is shown, it is not given here.

Key:
[1] = target: T1, interaction between HPV11 E1 and HPV16 E2 (Human papillomavirus 11, UniProt P04014); assay: In vitro HPV E1-E2 binding assay, HPV11 E1 and HPV16 E2
T1 construct: made in house; host or cells: Hi-Five insect cells infected with recombinant baculovirus (HPV-11 EE-E1 virus a gift from Louise Chow); nuclear extracts
T1 sequence (P04014 whole entry, looked up): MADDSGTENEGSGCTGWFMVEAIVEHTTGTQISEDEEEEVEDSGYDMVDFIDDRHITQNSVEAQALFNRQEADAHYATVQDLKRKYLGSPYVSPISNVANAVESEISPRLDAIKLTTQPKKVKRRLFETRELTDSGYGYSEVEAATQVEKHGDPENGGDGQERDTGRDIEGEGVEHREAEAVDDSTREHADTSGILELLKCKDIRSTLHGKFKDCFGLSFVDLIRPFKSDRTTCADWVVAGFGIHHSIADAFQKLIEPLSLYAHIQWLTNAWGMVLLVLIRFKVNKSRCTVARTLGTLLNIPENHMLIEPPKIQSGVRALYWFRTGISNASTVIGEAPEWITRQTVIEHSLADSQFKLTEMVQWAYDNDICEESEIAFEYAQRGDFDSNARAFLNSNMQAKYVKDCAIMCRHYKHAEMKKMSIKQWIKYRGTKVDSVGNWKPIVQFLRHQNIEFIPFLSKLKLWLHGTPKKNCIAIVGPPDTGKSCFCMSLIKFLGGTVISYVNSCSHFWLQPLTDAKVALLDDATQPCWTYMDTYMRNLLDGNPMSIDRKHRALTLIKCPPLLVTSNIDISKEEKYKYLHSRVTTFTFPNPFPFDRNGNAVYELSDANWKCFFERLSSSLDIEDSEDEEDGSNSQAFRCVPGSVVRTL
Description: (§1) In vitro HPV E1-E2 binding assay. 300-500 ng protein from HPV16 or HPV11 EE-E1 expressing recombinant baculovirus infected cell nuclear extracts and 80-120 ng from HPV E2 baculovirus infected cell nuclear extracts were incubated in 500 μl NET-gel buffer (50 mM Tris-HCl pH7.5, 150 mM NaCl, 0.1% NP-40, 1 mM EDTA, 0.25% gelatin) at 4° C. for one hour. 1-2 μg anti-EE monoclonal antibody was added and incubated with shaking at 4° C. for one hour. Immune complexes were precipitated with protein-G agarose beads and washed twice for 30 minutes with ice cold NET-gel buffer. Precipitated proteins were detected by Western blot using appropriate primary antibodies and anti-rabbit IgG HRP or anti-mouse IgG HRP (Amersham). Membranes were blocked for one hour in TNET (10 mM Tris 7.5, 2.5 mM EDTA, 50 mM NaCl, 0.1% Tween-20) containing 4% (w/v) dry milk. Washes and antibody reactions were carried out in TNET, and proteins were visualized by chemiluminescence (Reneaissance ECL, NEN) and autoradiography. Bands were quantitated using the NIH image program.
(§2) Very little is known about the physical properties of domains within the papillomavirus E1 and E2 proteins that are involved in intermolecular recognition and association. […] The effect of the E2N-WP15 peptide on these interactions was also assessed. […]

HPV11 E1/E2 interaction = target: T2, HPV11 E1/E2 interaction (Human papillomavirus 11, UniProt P04014); assay: In vitro HPV E1-E2 binding assay, HPV11 E1 and HPV11 E2
T2 construct: made in house; host or cells: Hi-Five insect cells infected with recombinant baculoviruses (gift from Louise Chow); nuclear extracts
T2 sequence (P04014 whole entry, looked up): T1 sequence (P04014 whole entry, looked up)
Description: as §1, §2

[2] = tested on: in vitro HPV16 DNA replication; assay: In vitro replication of HPV16 DNA (293 cell extract, EE-E1, HPV16 E2); type: biochemical; details: 40 ng EE-E1 and 6 ng HPV16 E2, FIG. 7
Description: In vitro replication reactions. In vitro replication reactions were essentially as described by Kuo et al. (18) in 25 μl reactions at 37° C. for indicated times. Standard reactions were for 2 hours, and were terminated by addition of 200 μl stop solution (20 mM Tris-HCl pH 7.5, 10 mM EDTA, 0.1% SDS, and 20 μg/ml RNase A). After incubation at 37° C. for 15 minutes, proteinase K was added (200 μg/ml) and incubation was continued 30 minutes. Samples were extracted with 250 μl phenol/chloroform/isoamyl alcohol (25:24:1), ethanol precipitated, washed with 70% ethanol, dried, resuspended in 20-30μl TE, and analyzed on a 0.8% agarose gel (TAE). The agarose gel was dried onto Hybond N+ membrane (Amersham), and replicated DNA was visualized by autoradiography. Bands were quantitated by Phosphorimager analysis. Replication templates were pKS7838-7905 (nt7838-7905/1-130) containing the HPV16 replication origin, and pUC7874-99 containing the HPV11 origin of replication (nt7874-7933/1-99). pUC7874-99 was a generously provided by Dr. Louise Chow.
We sought to establish a system for the study of HPV16 DNA replication in vitro, and to determine whether specific interaction between HPV16 E1 and E2 was required for HPV16 DNA replication in this system. […] As has been documented for other papillomavirus E1 proteins, some replication was observed using relatively large amounts of E1 in the absence of E2 (lanes 2 through 7) (6, 16, 22, 33, 40, 48). […] Replication in this assay is ori-dependent, since the small amount of replication of the pKS plasmid lacking the HPV16 origin detected at high concentrations of EE-E1 (FIG. 3B, lanes 1-6) was not stimulated by E2 (FIG. 1B, lanes 7-12).
Since the E2N-WP23 and E2N-WP 15 peptides could inhibit interaction between […] E1 and E2, their ability to inhibit in vitro HPV16 DNA replication was also tested (FIGS. 7A and 7B).

WKHMRLACAIYYKAR [E2N-MP15]
inhibition of interaction between HPV11 E1 and HPV16 E2 [1]: did not inhibit
inhibition of HPV11 E1/E2 interaction (HPV11 E1/E2 interaction): did not inhibit
inhibition of in vitro HPV16 DNA replication [2]: wild type peptides inhibited replication much more effectively than the respective E39A substituted analog
